This is an account of results in patent US20150315252A1.

The target in the experiment is CherryPicker DmrA chimeric protein. Description: cell-based or functional assay.

The substance AcGFP-DmrC fusion protein registered an amount of AcGFP-DmrC in microvesicles produced with A/C heterodimerizer (western blot against AcGFP standards) of 5 ng/µL; an amount of AcGFP-DmrC in microvesicles produced without A/C heterodimerizer (western blot against AcGFP standards) of 0.6 ng/µL; a packaging efficiency of AcGFP-DmrC into microvesicles, +A/C against -A/C of 8 fold.
